Key:
[1] = biological target: FcγRIIIa, V allele at position 158, on NK cells homozygous for V (human) (UniProt P08637); assay: cell-based or functional assay
[2] = biological target: FcγRIIIa, F allele at position 158, on NK cells homozygous for F (human) (UniProt P08637); assay: cell-based or functional assay

Substance | Inhibition of ADCC (cetuximab-mediated ADCC of A431 cells by NK cells) [1] [%] | Inhibition of ADCC (trastuzumab-mediated ADCC of SKBR-3 cells by NK cells) [1] [%] | Inhibition of ADCC (cetuximab-mediated ADCC of A431 cells by NK cells) [2] [%] | Inhibition of ADCC (trastuzumab-mediated ADCC of SKBR-3 cells by NK cells) [2] [%]
aggregated IgG1 expressing GM 3+,1-,2- allotypes (antibody) | 79.4 | 97.4 | 76.5 | 94.5
aggregated IgG1 expressing GM 17+,1+,2+ allotypes (antibody) | 83.3 | 73.8 | 50.3 | 27.8
